Publication PMC10160106, “Symport and antiport mechanisms of human glutamate transporters” (Nature Communications, 2023)

Target: the molecule itself
Experiment: cryo-EM structure; EAAT3-X in 0.01% GDN, 20 mM HEPES-Tris pH 7.4, in 200 mM NaCl and 20 mM L-glutamate, 300 mM KCl, 150 mM NMDG chloride or 300 mM NaCl; maps refined with C3 symmetry, then symmetry expansion and local classification of protomers

B1: MinCys EAAT3 K269C/W441C crosslinked using Hg2+ (EAAT3-X) (natural protein, human, UniProt P43005 1-524, looked up)
chain: MGKPARKGAEWKRFLKNNWVLLSTVAAVVLGITTGVLVREHSNLSTLEKFYFAFPGEILMRMLKLIILPLIISSMITGVAALDSNVSGKIGLRAVVYYFATTLIAVILGIVLVVSIKPGVTQKVGEIARTGSTPEVSTVDAMLDLIRNMFPENLVQAAFQQYKTKREEVKPPSDPEMTMTEESFTAVMTTAISKTKTKEYKIVGMYSDGINVLGLIVFALVFGLVIGKMGEKGQILVDFFNALSDATMKIVQIIMWYMPLGILFLIAGCIIEVEDWEIFRKLGLYMATVLTGLAIHSIVILPLIYFIVVRKNPFRFAMGMAQALLTALMISSSSATLPVTFRCAEENNQVDKRITRFVLPVGATINMDGTALYEAVAAVFIAQLNDLDLGIGQIITISITATSASIGAAGVPQAGLVTMVIVLSAVGLPAEDVTLIIAVDCLLDRFRTMVNVLGDAFGTGIVEKLSKKELEQMDVSSEVNIVNPFALESTILDNEDSDTKKSYVNGGFAVDKSDTISFTQTSQF
modifications: Hg2+ crosslink between C269 and C441
notes: Homotrimer; also called crosslinked EAAT3-X; MiniCys EAAT3 K269C/W441C; source: HEK 293F, transfected, purified (Strep-Tactin, SEC in GDN), crosslinked with HgCl2; not shown: Strep-II, N-terminal, cleaved; GFP, N-terminal, cleaved
Q: For B1, which “stoichiometry N” value is on record?
A: 3
